No end group written: not given here. PEG = not defined here; Cy5 = Cy5 dye

chicken PHT1 (purified, wild type) (chicken), sequence (chain, as listed by the source): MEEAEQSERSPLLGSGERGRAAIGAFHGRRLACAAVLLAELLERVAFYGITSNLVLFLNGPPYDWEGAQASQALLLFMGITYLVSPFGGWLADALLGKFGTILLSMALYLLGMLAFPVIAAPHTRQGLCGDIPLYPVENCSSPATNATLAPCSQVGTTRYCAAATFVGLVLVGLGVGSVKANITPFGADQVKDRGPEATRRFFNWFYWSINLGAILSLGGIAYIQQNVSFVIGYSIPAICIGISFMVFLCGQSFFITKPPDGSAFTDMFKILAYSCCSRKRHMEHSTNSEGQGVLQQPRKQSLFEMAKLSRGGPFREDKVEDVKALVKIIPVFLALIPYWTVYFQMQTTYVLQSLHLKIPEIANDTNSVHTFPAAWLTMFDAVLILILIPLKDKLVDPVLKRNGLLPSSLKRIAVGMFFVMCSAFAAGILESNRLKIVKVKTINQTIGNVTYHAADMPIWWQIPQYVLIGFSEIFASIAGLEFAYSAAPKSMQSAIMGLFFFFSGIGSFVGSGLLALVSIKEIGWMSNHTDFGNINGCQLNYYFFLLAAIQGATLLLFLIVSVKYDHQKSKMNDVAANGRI

The first assay addresses chicken PHT1 (purified, wild type) (chicken). Put plainly: MST.
For MLSEGYLYRIAYL-{PEG-Cy5} (reading uncertain) [fluorescently labeled TASL_(1-13) peptide], the Kd – broadly, the free concentration of one partner at which half of the binding sites on the other are occupied at equilibrium, for simple one-to-one binding – came out at 361 nM.

The next assay shares this target.
Experiment: not given
For the molecule MLSEGYLYRIAYLCE [TASL peptide with a length of 15 residues], the Kd was found to be 1760 nM.

In turn, MLSEGYLYRIAYLCEDS [TASL peptide with a length of 17 residues] came in with a Kd of 1350 nM.

MLSEGYLYRIAYLCEDSELCT [TASL peptide with a length of 21 residues] gave a Kd of 4050 nM.

The next assay has the same target.
Experiment: not given
This is another data set of the same source.
EGYLYRIAYL [TASL 4-13] yielded a Kd of 10500 nM.

For MLSEGYAYRIAYL [TASL 1-13 L7A], the Kd worked out at 310 nM.

In turn, LSEGYLYRIAYL [TASL 2-13] came in with a Kd of 9110 nM.

In turn, ALSEGYLYRIAYL [TASL 1-13 M1A] displayed a Kd of 15400 nM.

In the case of MLSEGYLARIAYL [TASL 1-13 Y8A], binding was put at a Kd of 2120 nM.

The molecule MLSEGYLYRIAYLGS [TASL 1-13-GS] registered a Kd of 710 nM.

MASEGYLYRIAYL [TASL 1-13 L2A] yielded a Kd of 7280 nM.

The molecule MLSEGYLYRIAYLGSGSGS [TASL 1-13-GSGSGS] yielded a Kd of 410 nM.

As to MLSEGYLYRIAY [TASL 1-12], the affinity, expressed as Kd, was 1740 nM.

In turn, SEGYLYRIAYL [TASL 3-13] registered a Kd of 7630 nM.

As for MLSEGALYRIAYL [TASL 1-13 Y6A], binding was characterised by a dissociation constant (Kd) of 1530 nM.

MLSEGYLYAIAYL [TASL 1-13 R9A] gave a Kd of 3360 nM.

MLSEGYLYRIAYLGSGS [TASL 1-13-GSGS] came in with a Kd of 580 nM.

For the molecule MLSEGYLYRIAYLA [TASL 1-14 C14A], the Kd stood at 400 nM.

With MLAEGYLYRIAYL [TASL 1-13 S3A], binding was characterised by a dissociation constant (Kd) of 690 nM.

Source of the values: article PMC10502012 (2023).
